Article PMC4414246

Target: U1A E19S (UniProt P09012 10-89, E19S)
Test: fluorescence polarization

Sequence of U1A E19S (P09012 10-89 E19S): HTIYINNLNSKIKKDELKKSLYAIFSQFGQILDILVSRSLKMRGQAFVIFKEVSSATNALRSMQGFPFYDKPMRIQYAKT

In the case of GGCAGAUCUGAGCCUGGGAGCUCUCUGCC (structured_RNA) [TAR RNA], the binding signal is reported as ~1.6 fold lower affinity than without tRNA.
